Measurements reported in patent publication US20240084003A1 (SIMCERE ZAIMING PHARMACEUTICAL, published 2024).

T1: murine CD22 protein (ACROBiosystems, SI2-M52Ha) (murine, UniProt P35329 22-708)
T1 construct: extracellular domain; also called murine CD22-ECD; murine CD22-ECD-His
T1 sequence (looked up): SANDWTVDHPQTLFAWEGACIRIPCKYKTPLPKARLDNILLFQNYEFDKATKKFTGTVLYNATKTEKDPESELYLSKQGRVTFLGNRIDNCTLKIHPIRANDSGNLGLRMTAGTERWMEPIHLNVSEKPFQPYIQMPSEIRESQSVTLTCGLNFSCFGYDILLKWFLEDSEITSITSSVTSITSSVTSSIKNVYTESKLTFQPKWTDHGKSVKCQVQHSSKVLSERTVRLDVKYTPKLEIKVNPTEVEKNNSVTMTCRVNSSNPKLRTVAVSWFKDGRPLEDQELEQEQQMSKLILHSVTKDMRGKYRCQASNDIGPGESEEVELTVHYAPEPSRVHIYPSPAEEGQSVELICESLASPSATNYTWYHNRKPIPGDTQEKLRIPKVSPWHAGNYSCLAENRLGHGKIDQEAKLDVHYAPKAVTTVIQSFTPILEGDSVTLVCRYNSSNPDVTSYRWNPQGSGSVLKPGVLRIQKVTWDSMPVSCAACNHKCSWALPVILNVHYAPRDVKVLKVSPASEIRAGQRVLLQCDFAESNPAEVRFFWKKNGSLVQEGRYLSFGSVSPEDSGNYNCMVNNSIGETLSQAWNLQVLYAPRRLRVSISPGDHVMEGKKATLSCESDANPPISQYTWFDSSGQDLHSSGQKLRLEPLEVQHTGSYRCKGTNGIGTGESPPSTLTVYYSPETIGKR

T2: human CD22, endogenous on Raji cells (human, UniProt P20273 20-847)
T2 construct: whole, on cells; Endogenous protein of the Raji cell line
T2 sequence (looked up): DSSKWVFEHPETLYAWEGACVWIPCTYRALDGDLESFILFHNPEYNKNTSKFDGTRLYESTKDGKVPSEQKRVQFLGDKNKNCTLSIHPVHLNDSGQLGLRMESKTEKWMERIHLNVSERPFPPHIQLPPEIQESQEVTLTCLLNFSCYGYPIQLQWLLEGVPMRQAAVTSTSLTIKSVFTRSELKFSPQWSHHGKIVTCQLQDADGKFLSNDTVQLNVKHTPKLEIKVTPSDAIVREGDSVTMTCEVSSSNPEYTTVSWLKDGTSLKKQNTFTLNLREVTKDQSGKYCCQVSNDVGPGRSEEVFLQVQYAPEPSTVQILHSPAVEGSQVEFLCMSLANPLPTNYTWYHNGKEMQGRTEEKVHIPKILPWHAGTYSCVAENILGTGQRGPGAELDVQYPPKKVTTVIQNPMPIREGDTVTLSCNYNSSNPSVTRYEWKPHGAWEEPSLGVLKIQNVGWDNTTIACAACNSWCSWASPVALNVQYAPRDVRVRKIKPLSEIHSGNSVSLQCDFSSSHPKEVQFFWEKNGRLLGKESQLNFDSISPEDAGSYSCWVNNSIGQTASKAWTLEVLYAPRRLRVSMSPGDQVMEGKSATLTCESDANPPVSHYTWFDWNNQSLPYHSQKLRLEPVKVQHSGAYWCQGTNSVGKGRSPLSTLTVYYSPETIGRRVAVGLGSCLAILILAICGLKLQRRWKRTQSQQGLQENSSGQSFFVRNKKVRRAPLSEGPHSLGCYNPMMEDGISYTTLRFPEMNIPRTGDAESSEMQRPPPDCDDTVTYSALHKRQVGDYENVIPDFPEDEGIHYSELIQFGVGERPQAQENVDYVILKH

T3: human CD22, full length, on CHO-K1-human CD22 2C4 cells (human, UniProt P20273 20-847)
T3 construct: Full-length human CD22 (NCBI NP_001762.2) stably transfected into CHO-K1
T3 sequence: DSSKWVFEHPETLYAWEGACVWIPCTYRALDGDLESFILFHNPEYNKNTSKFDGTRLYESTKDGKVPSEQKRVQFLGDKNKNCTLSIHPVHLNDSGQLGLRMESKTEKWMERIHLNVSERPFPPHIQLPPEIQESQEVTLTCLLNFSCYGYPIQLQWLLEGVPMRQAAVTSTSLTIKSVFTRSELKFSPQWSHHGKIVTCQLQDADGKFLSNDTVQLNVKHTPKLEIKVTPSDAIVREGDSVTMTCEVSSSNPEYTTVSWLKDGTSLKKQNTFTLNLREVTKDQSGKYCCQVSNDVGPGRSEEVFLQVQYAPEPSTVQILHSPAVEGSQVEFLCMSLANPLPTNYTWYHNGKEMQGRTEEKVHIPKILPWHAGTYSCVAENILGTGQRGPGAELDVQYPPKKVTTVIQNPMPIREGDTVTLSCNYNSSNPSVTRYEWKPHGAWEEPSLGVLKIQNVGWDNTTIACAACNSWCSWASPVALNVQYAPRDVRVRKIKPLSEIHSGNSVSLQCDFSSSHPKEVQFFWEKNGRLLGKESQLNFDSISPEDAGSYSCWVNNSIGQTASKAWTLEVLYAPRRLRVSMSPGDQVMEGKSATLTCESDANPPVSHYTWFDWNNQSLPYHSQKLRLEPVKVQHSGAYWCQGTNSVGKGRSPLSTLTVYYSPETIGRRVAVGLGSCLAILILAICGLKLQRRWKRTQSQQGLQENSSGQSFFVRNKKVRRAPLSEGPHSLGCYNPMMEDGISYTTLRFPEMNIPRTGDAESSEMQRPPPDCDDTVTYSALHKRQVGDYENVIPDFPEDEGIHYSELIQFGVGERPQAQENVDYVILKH


Legend:
[1] = target: T1, murine CD22 protein (ACROBiosystems, …); assay: ELISA, coated murine CD22, 100 nM Ab
Procedure: (§1) In order to detect the binding activity of CD22 human-murine chimeric antibodies to CD22 protein, the purified human CD22-ECD-His protein obtained in Example 2 was diluted with PBS to a final concentration of 2 μg/mL, and then added to 96-well ELISA plate at 100 μl/well. The plate was sealed with plastic film and incubated overnight at 4° C., the plate was washed 2 times with PBS the next day, and then a blocking solution [PBS+2% (w/w) BSA] was added for blocking at room temperature for 2 hours. […] After incubation at 37° C. for 2 hours, the plate was washed 3 times with PBS. HRP (horseradish peroxidase)-labeled secondary antibody (purchased from Sigma, catalog number: A0170) was added, and incubated at 37° C. for 2 hours, and the plate was washed 5 times with PBS. TMB substrate was added at 50 μl/well, and incubated at room temperature for 30 minutes, then a stop solution (1.0 N HCl) was added at 50 μl/well.
(§2) In order to detect the species cross-binding activity of the chimeric antibodies, an ELISA plate was coated with commercial murine CD22 protein (ACROBiosystems, catalog number: SI2-M52Ha) and monkey CD22 protein (ACROBiosystems, catalog number: SI2-R52Ha), respectively, and the ELISA detection was performed according to the method in Example 5.1.

[2] = target: T2, human CD22, endogenous on Raji cells; assay: FACS, Raji cells
Text: (§3) The required cells were scale-up cultured in a T-75 cell culture flask to the logarithmic growth phase. For the adherent cell CHO-K1, the medium was aspirated, the cells were washed 2 times with PBS buffer, and then digested with trypsin. After the digestion was terminated, the cells were washed 2 times with PBS buffer. For suspension cell Raji, the medium supernatant was directly centrifuged and discarded, and the cell pellet was washed 2 times with PBS. After counting the cells in the previous step, the cell pellet was resuspended with [PBS+2% (w/w) BSA] blocking solution to 2×10⁶ cells/ml, and added to a 96-well FACS reaction plate at 50 μl/well, and then the chimeric antibody test sample was added at 50 μl/well, and incubated on ice for 2 hours. The mixture was centrifuged and washed 3 times with PBS buffer, Alexa Flour 488-labeled secondary antibody (purchased from Invitrogen, catalog number: A-11013) was added at 50 μl/well, and incubated on ice for 1 hour. The obtained mixture was centrifuged and washed 5 times with PBS, and FACS (FACS Canto™, purchased from BD Company) was used for detection and result analysis. Data analysis was performed by software (CellQuest) to obtain the mean fluorescence density (MFI)of the cells. And then software (GraphPad Prism8) was used for analysis, data fitting, and EC50 value calculation. […] The same method was used to detect the binding of the chimeric antibodies to endogenous CD22-negative cell MoLT4 cells (purchased from ATCC, CRL-1582) and CHO-K1 cells.

[3] = target: T1, murine CD22 protein (ACROBiosystems, …); assay: ELISA, coated murine CD22, 0.00001 nM Ab
Procedure: as §1, §2

[4] = target: T1, murine CD22 protein (ACROBiosystems, …); assay: ELISA, coated murine CD22, 0.01 nM Ab
Procedure: as §1, §2

[5] = target: T3, human CD22, full length, on …; assay: FACS, CHO-K1-human CD22 2C4 cells
Text: as §3

[6] = target: T1, murine CD22 protein (ACROBiosystems, …); assay: ELISA, coated murine CD22, 0.1 nM Ab
Procedure: as §1, §2

[7] = target: T1, murine CD22 protein (ACROBiosystems, …); assay: ELISA, coated murine CD22, 0.0001 nM Ab
Procedure: as §1, §2

[8] = target: T1, murine CD22 protein (ACROBiosystems, …); assay: ELISA, coated murine CD22, 10 nM Ab
Procedure: as §1, §2

[9] = target: T1, murine CD22 protein (ACROBiosystems, …); assay: ELISA, coated murine CD22, 0.001 nM Ab
Procedure: as §1, §2

Binder | OD450 [1] [OD450] | EC50 [2] [nM] | Maximum mean fluorescence intensity [2] [MFI] | OD450 [3] [OD450] | OD450 [4] [OD450] | EC50 [5] [nM] | Maximum mean fluorescence intensity [5] [MFI] | OD450 [6] [OD450] | OD450 [7] [OD450] | OD450 [8] [OD450] | OD450 [9] [OD450]
F1.216.2 human-murine chimeric antibody (antibody, human IgG1, kappa, V domains shown, Chimeric, human IgG1 / kappa) VH: QVQLQQSGPEVVRPGASVKISCKASGYAFSSSWMNWMKQRPGKALEWIGRIYPGDGDTNYSGEFKVKATLTADKSSSTAYMQLSSLTSEDSAVYFCAREGSYYSNPWYFDYWGQGTTLTVSS VL: DVLVTQTPLSLPVSLGDQASISCRSSQSIVQSNGDTYLEWYLQKPGQSPKLLIYKVSNRFSGVPDRFSGSGSGTDFTLKISRVEAEDLGVYYCFQGSHVPFTFGSGTKLEIKR | 0.08 | 0.16 | 25300 | 0.06 | 0.05 | 0.32 | 31500 | 0.05 | 0.06 | 0.06 | 0.05
F1.192.1 human-murine chimeric antibody (antibody, human IgG1, kappa, V domains shown, Chimeric, human IgG1 / kappa) VH: AVQLQQSGVELVRPGASVKLSCTGSDFNIKEDYIHWVKQRPEQGLEWIGWIDPENGDTEYASKFQGKATITADTSSNTAYLQLSSLTSEDTAVYYCATYGSLDYWGQGTTLTVSS VL: DIKMTQSPSSMYAFLGERVTITCKASQGINSFLTWFQQKPGKSPKTLIYRANRLVDGVPSRFSGSGSGQDYSLTISSLEYEDVGIYYCLQYDEFPRTFGGGTKLEIKR | 0.08 | 0.37 | 24400 | 0.07 | 0.07 | 0.81 | 27200 | 0.07 | 0.07 | 0.08 | 0.06
F1.250.16 human-murine chimeric antibody (antibody, human IgG1, kappa, V domains shown, Chimeric, human IgG1 / kappa; VL tied by name) VH: QVQLQQSGAEQVKPGASVKMSCKASGYTFTTYPIEWMKQNHGESLDWIGNIHPYNDDTEYNEKFKGKATLTVEKSSNTVFLELSRLTSDDSAVYYCVRGDYYNSRYWYFDVWGTGTTVTVSS VL: DIVMTQSQKFMSTTVGDRVSITCKAGQNVRTAVAWYQQKPGQSPKLLIYSASTRYIGVPERFTGSGSGTDFTLTITNMQSEDLADYFCQQYSSFPLTFGTGTKLELKR | 0.06 | 0.16 | 25000 | 0.06 | 0.05 | 0.49 | 37400 | 0.05 | 0.05 | 0.06 | 0.05
F1.280.1 human-murine chimeric antibody (antibody, human IgG1, kappa, V domains shown, Chimeric, human IgG1 / kappa) VH: QIQLVQSGPELKKPGETVKISCKASGYTFTTYGMSWVKQTPGKGLTWMGWINTDSGVPTYADDFKRRFAFSLEASATTAYLQINNLKNEDTATYFCARGGPDYWGQGTTLTVSS VL: DILLTQSPATLSVTPGETVSLSCRASQSIYKNLHWYHQKSHRSPRLLIKYASDSISGIPSRFTGSGSGTNFTLSINSVKPEDEGIYYCLQGYIVPLTFGAGTKLELKR | 0.16 | 0.5 | 25000 | 0.06 | 0.05 | 0.92 | 43800 | 0.05 | 0.05 | 0.07 | 0.05
F1.200.11 human-murine chimeric antibody (antibody, human IgG1, kappa, V domains shown, Chimeric, human IgG1 / kappa) VH: QNQLVQSGPELKKPGETVKISCKASGYTFTTAGMQWVQKMPGKGFKWIGWINTLSGEPKYAEDFKGRFAFSLETSATTAYLQISNLKNEDTATYFCARAYYSNLYWYFDVWGTGTTVTVSS VL: DIVMTQSQKFMSTTVGDRVTITCKASQNVVTAVAWYQQKPGQSPKVLIYSASNRYSGVPDRFTGSGSGTDFTLTISNMHSEDLANYFCHQYSSYPFTFGSGTKLEIKR | 0.07 | 2.41 | 20800 | 0.06 | 0.05 | 11.2 | 23000 | 0.05 | 0.05 | 0.06 | 0.05
F1.120.15 human-murine chimeric antibody (antibody, human IgG1, kappa, V domains shown, Chimeric, human IgG1 / kappa) VH: QVQLQQSGPELVKPGASVKISCKASGNAFSNSWMNWVKQRPGKGLEWIGRVYSEDGDTQYNGKFRDKATLTADRSTSTAYMQLSSLTSEDSAVYFCARWLIYYGTYGAMDYWGQGTSVTVSS VL: DIQMTQTTSSLSASLGDRVTISCRASQDINNYLNWYHQKPDGTVKLLIYFTSRPYSGVPSRFSGSGSGTDYSLTISNLEQEDIATYFCQQGNTLPWTFGGGTKLEIKR | 0.06 | 0.89 | 23700 | 0.06 | 0.05 | 1.07 | 27900 | 0.05 | 0.05 | 0.06 | 0.05
